One substance from patent US20230039487A1 can be followed below.

One assay has as its target hBCMA-His (human) (UniProt Q02223). Nature of the assay: ELISA; isotype control. (In general: ELISA stands for enzyme-linked immunosorbent assay.)
For a further assay, the target named is hBCMA-mFc (UniProt Q02223). Nature of the assay: competition ELISA; isotype control; blocking of APRIL binding.
Chain of hBCMA-mFc (Q02223 1-54): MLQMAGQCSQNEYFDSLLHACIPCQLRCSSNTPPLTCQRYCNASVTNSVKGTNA

Chain of hBCMA-His (human) (Q02223 1-54): as above

One may read the EC50 as the concentration at which the effect is half-maximal. Read a low EC50 as greater potency. By IC50 is commonly meant the concentration that gives 50% inhibition. A low value points to greater potency in that assay. Regarding h IgG1 ISO, the EC50 with hBCMA-His (human) amounted to 61.4 nM. Besides, the IC50 in the assay with hBCMA-mFc is 202 nM.
